Assay [1] concerns the target T1, recombinant TLR4 ectodomain, His-tagged (Sino Biological) (human, UniProt O00206 24-631).
T1 construct: extracellular domain; Bought protein; also called eTLR4; eTLR4-His; not shown: His-tag
Nature of the assay: pull-down with anti-AIBP antibody, western blot with anti-his antibody. The procedure:
(§1) Co-immunoprecipitation assays for TLR4 binding. Pull down assay of eTLR4 and wtAIBP or mutAIBP in test tube was performed by mixing 1 μg of eTLR4 (Sino Biological) and AIBP in PBS containing 0.5% Triton X-100 and incubating for 1 hour at room temperature. Samples were precleared by adding Protein A/G Sepharose beads at room temperature for 30 min, followed by addition of 1 μg of BE-1 monoclonal anti-AIBP antibody and incubation for 2 hours. Protein A/G Sepharose beads were added and incubated for an additional one hour, followed by 5 washes with PBS containing 0.5% Triton X-100 and immunoblot of samples.
A pulldown assay was performed using compounds as provided herein. Compounds 3, 7, 8 or 9 and other constructs described in FIGS. 13 and 14 were purified from either a baculovirus (BD Bioscience) or CHO (ExpiCHO, Expression Systems, ThermoFisher) cell expression system and incubated with TLR4 protein (Sino biological). Pull-down was performed with anti-AIBP antibody described. Bound TLR4 to AIBP was detected by western blot with an anti-his antibody (both modified AIBP and TLR4 have his-tag). Detailed experimental information is provided in example 1 as to pull down method.

Assay [2] addresses T1, recombinant TLR4 ectodomain, His-tagged …. The assay can be described thus: pull-down with BE-1 anti-AIBP antibody, immunoblot. As for the experimental part:
as §1
FIG. 9: Identifies sequence motifs that contribute to AIBP binding to TLR4: FIG. 9. Identification of the domain in the AIBP molecule responsible for TLR4 binding. A, Human AIBP: signal peptide (aa 1-24), previously uncharacterized N-terminal domain (aa 25-51), and YjeF_N domain (aa 52-288). B, Flag-tagged deletion mutants of human AIBP were co-expressed in HEK293 cells with the Flag-tagged TLR4 ectodomain (eTLR4). Cell lysates were immunoprecipitated (IP) with an anti-TLR4 antibody and immunoblotted (IB) with an anti-Flag antibody. […] IP of eTLR4 and wtAIBP or mutAIBP in a test tube with an anti-AIBP antibody; blot and quantification from 3 independent experiments (D). […]

The next assay concerns the target T2, human APOA1 (human, UniProt P02647 25-267).
T2 construct: also called ApoA-I
Nature of the assay: ELISA, AIBP-coated plates incubated with 5 µg/ml human APOA1. As for the experimental part:
ELISA binding assays. To assess AIBP-TLR4 binding, 96-well plates were coated with 5 μg/ml of eTLR4, washed three times with PBS containing 0.05% Tween-20, blocked with PBS containing 1% BSA, and incubated with wtAIBP or mutAIBP, followed by 2 μg/ml of a biotinylated BE-1 anti-AIBP monoclonal antibody. To assess AIBP-APOA1 binding, plates were coated with BSA, wtAIBP or mutAIBP, washed, blocked, and incubated with 5 μg/ml of human APOA1 (a gift from Dmitri Sviridov, Baker Heart and Diabetes Institute, Melbourne, Australia), followed by a biotinylated anti-APOA1 antibody (Academy Bio-Medical Company, RRID:AB_1238781). In both assays, neutravidin-AP was added and incubated for 45 minutes at room temperature, followed by LumiPhos 530 (Lumigen) for 90 min, and luminescence was measured using a luminescence plate reader (BioTek, Winooski, Vermont).
FIG. 9: Identifies sequence motifs that contribute to AIBP binding to TLR4: FIG. 9. Identification of the domain in the AIBP molecule responsible for TLR4 binding. A, Human AIBP: signal peptide (aa 1-24), previously uncharacterized N-terminal domain (aa 25-51), and YjeF_N domain (aa 52-288). […] IP of eTLR4 and wtAIBP or mutAIBP in a test tube with an anti-AIBP antibody; blot and quantification from 3 independent experiments (D). […]

For assay [3], the target named is T1, recombinant TLR4 ectodomain, His-tagged …. The assay can be described thus: co-immunoprecipitation with recombinant ectodomain of TLR4; proteins from E. coli.
Assay [4] shares this target. Nature of the assay: test-tube co-IP with anti-TLR4 antibody, immunoblot with anti-His antibody. An excerpt: FIG. 9: Identifies sequence motifs that contribute to AIBP binding to TLR4: FIG. 9. Identification of the domain in the AIBP molecule responsible for TLR4 binding. A, Human AIBP: signal peptide (aa 1-24), previously uncharacterized N-terminal domain (aa 25-51), and YjeF_N domain (aa 52-288). B, Flag-tagged deletion mutants of human AIBP were co-expressed in HEK293 cells with the Flag-tagged TLR4 ectodomain (eTLR4). Cell lysates were immunoprecipitated (IP) with an anti-TLR4 antibody and immunoblotted (IB) with an anti-Flag antibody. C, His-tagged human (hu), mouse (mo) and zebrafish (zf) AIBP, all lacking the signal peptide, expressed in a baculovirus/insect cell system, were combined in a test-tube with eTLR4-His, followed by IP with an anti-TLR4 antibody and IB with an anti-His antibody. D-H, Binding of His-tagged wild type (wt, 25-288 aa) and the deletion mutant (mut, 52-288 aa) human AIBP to eTLR4, APOA1 and microglia. IP of eTLR4 and wtAIBP or mutAIBP in a test tube with an anti-AIBP antibody; blot and quantification from 3 independent experiments (D). ELISA with plates coated with eTLR4 and incubated with wtAIBP or mutAIBP (n=3) (E). ELISA with plates coated with BSA, wtAIBP or mutAIBP and incubated with APOA1 (F). […]

T1 sequence (O00206 24-631): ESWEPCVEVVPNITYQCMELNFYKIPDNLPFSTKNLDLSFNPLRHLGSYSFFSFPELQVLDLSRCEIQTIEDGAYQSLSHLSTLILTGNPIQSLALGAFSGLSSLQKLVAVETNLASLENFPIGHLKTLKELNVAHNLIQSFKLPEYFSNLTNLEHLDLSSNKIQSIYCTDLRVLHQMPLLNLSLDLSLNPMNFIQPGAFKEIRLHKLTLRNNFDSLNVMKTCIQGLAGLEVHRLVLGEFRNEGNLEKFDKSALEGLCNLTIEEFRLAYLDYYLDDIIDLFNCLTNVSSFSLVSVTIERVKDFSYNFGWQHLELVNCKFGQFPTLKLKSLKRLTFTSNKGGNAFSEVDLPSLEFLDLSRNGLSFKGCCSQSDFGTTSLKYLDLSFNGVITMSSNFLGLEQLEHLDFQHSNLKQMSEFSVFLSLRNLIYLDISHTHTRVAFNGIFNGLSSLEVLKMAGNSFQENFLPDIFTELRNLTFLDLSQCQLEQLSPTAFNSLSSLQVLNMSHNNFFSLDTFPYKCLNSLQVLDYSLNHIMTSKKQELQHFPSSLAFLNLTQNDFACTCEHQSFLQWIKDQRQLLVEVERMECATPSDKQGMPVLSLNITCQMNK
T2 sequence (P02647 25-267 limits assumed): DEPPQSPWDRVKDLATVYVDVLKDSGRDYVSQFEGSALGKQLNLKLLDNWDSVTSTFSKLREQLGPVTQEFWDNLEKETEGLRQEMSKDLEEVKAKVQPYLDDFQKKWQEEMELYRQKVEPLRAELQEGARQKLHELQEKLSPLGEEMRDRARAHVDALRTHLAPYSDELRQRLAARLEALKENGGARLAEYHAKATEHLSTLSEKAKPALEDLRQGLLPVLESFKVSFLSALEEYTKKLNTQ

B1: cleaved His-d24 AIBP (other)
chain: GSPGLDGICSRQTIACRSGPTWWGPQRLNSGGRWDSEVMASTVVKYLSQEEAQAVDQELFNEYQFSVDQLMELAGLSCATAIAKAYPPTSMSRSPPTVLVICGPGNNGGDGLVCARHLKLFGYEPTIYYPKRPNKPLFTALVTQCQKMDIPFLGEMPAEPMTIDELYELVVDAIFGFSFKGDVREPFHSILSVLKGLTVPIASIDIPSGWDVEKGNAGGIQPDLLISLTAPKKSATQFTGRYHYLGGRFVPPALEKKYQLNLPPYPDTECVYRLQ
notes: also called putative cleavage product of His-d24 AIBP
Take B1: the binding result in assay [1] was “no binding”.

B2: His-tagged deletion mutant (mut, 52-288 aa) human AIBP (other)
chain: MASTVVKYLSQEEAQAVDQELFNEYQFSVDQLMELAGLSCATAIAKAYPPTSMSRSPPTVLVICGPGNNGGDGLVCARHLKLFGYEPTIYYPKRPNKPLFTALVTQCQKMDIPFLGEMPAEPMTIDELYELVVDAIFGFSFKGDVREPFHSILSVLKGLTVPIASIDIPSGWDVEKGNAGGIQPDLLISLTAPKKSATQFTGRYHYLGGRFVPPALEKKYQLNLPPYPDTECVYRLQ
notes: Baculovirus/insect cell expression, pAcHLT-C vector; also called mutAIBP; mut AIBP; not shown: N-terminal His-tag of the pAcHLT-C vector
In the case of B2, the binding result in assay [2] was “no binding”; in the assay with human APOA1 it was “binds”.

B3: d51 AIBP-his (expressed in E. coli) (other)
chain: B2 chain
notes: not shown: his tag, read from the name as C-terminal
For the molecule B3, the binding result in assay [3] is recorded as “no binding”.

B4: His-tagged zebrafish (zf) AIBP lacking the signal peptide (other, UniProt Q6DHK1 29-283, looked up)
chain: SSAASNIYSKHLTHRPTCTMANTGVKYLGQEEAQQIDEELFSDFSFSVDQLMELAGLSCATAVAKGYPVTSLLKSPARVLVICGPGNNGGDGLVCARHLKLFGYEPSVLYPKRPNKQLFQNLSIQCQKMEIPFLTEMPEADLIDEAYSLVVDAIFGFSFKGAVREPFGEILSQLKKITVPIASVDIPSGWDVEKGCPDGIQPDMLISLTAPKKSAALFKGRFHFLGGRFVPPVLEQKYQLNLPQYPGTECVFQLN
notes: mature; also called zebrafish wild type AIBP; not shown: N-terminal His-tag of the pAcHLT-C vector
With B4, in assay [4], the binding result is recorded as “no binding”.

(Values after patent publication US20240209341A1 (University of California, published 2024).)
